# Test results published in US20160177324A1, “NOVEL PROTEIN AND GENE RELATED TO FLAVONOID O-METHYLTRANSFERASE (FOMT) AND THEIR USES THEREFORE” (INSTITUTE OF BOTANY, THE CHINESE ACADEMY OF SCIENCES, priority 2013, published 2016).
# B1: PsFOMT: flavonoid O-methyltransferase from tree peony Paeonia suffruticosa cv. 'Gunpohden', SEQ ID NO: 3; recombinant MBP fusion protein (protein, listed as Paeonia suffruticosa)
# chain: MAESDRKGILKSEALLKYILETSVYPREHEQLKQLRQATVDKYKYWSVMNVPADEGQFLSMLLKIMNAKKTIEVGVFTGYSLLTAALALPTDAKITAIDPDGEAYETGLPFIKKAGVEHKINYIQADAMSVLDDLVTNGKEEGSFDFAFVDADKENYAKYHEPLMKLVKIGGIIGYDNTLWFGSVALSDGDEMKEFQEKGRRIFREFNTFLAADPRIELAHISIGDGLALCRRLY
# modifications: MBP fusion
# notes: recombinant MBP fusion protein
# Tests used:
# [1] = test system: Fragaria×ananassa cv. 'Hongyan' fruits; assay: Transient expression in strawberry fruit (coexpression with PAP1); assay type: in vivo
# Procedure: A strawberry cultivar, Fragaria×ananassa cv. ‘Hongyan’ (The Beijing Agricultural Technology Extension Station) with fruits turning red were chosen as subjects. A single colony of Agrobacterium strain EHA105 with pBI121-FOMT construct was inoculated, and the pellet were centrifuged and washed with infiltration buffer (50 mM Mes, pH 5.6, 2 mM Na3PO4, 0.5% glucose (w/v), and 100 mM acetosyringone) according to Hoffmann et al. (Hoffmann, T., G. Kalinowski, and W. Schwab, RNAi-induced silencing of gene expression in strawberry fruit (Fragaria×ananassa) by agroinfiltration: a rapid assay for gene function analysis. Plant Journal, 2006. 48(5): p. 818-826.). The bacterial suspension was diluted with infiltration buffer to adjust the inoculum concentration to OD600 0.1-0.3. A syringe infiltration method was used to transient transform strawberry fruits. The infiltrated fruits were harvested after four days for anthocyanin content analyses as follow. […] The MS conditions were listed as follow: negative-ion (NI) mode; capillary voltage of 3.5 kV; a nebulization pressure of 241.3 kPa; and a gas (N2) temperature of 350° C. with flow rate of 6.0 L min^−1 Capillary offset voltage was 77.2 V. MS spectra were recorded over the range from m/z 50-1000.
# [2] = Comparison of activities among recombinant polypeptides with site mutagenesis; assay type: biochemical; conditions: Cy3G5G as substrate
# Procedure: The reaction system was according to Hugueney et al. with some modification (Hugueney, P., et al., A novel cation-dependent O-methyltransferase involved in anthocyanin methylation in grapevine. Plant Physiology, 2009. 150(4): p. 2057-2070.). Purified recombinant FOMT (2 μg) was assayed in a final volume of 200 μL containing 200 μM SAM, 1 mM MgCl2, 14 mM β-mercaptoethanol, 100 mM Tris, pH 7.5, and 20 μM flavonoid substrates. Incubation was performed at 35° C. and stopped with 200 μL methanol containing 2% formic acid. For enzyme kinetic studies, purified FOMT was incubated based on the above condition with the exception that a range of substrate concentrations from 5 to 200 μM were used for Km determination. Reaction product was analyzed by a Dionex HPLC system (Sunnyvale, Calif.), equipped with a P680 HPLC pump, an UltiMate 3000 autosampler, a TCC-100 thermostated column compartment and a Dionex PDA100 photodiode array detector. The analytical column was C18 column of ODS 80Ts QA (150 mm×4.6 mm, 5 μm i.d., Tosoh, Tokyo) protected with a C18 guard cartridge (Shanghai ANPEL Scientific Instrument, Shanghai). The following solvent and gradient were used: A, 10% aqueous formic acid; B, methanol; constant gradient from 10 to 36% B within 15 min and back to 10% B in 3 min; the flow rate was 0.8 mL min^−1; Column temperature was maintained at 35° C.; 20 μL of analyte was injected. Chromatograms were obtained at 525 nm for anthocyanins and 350 nm for other flavonoids, and photodiode array spectra were recorded from 200 to 800 nm. Km and Vmax values were calculated from Lineweaver-Burk plots.
# To validate the key amino acid responsible for the activity, site-directed mutagenesis was carried out using the PCR method and Fast Mutagenesis System (TransGen), and primer sequences used are given in Table 1. Four constructs were built following the template sequence of PtFOMT, named as PtFOMT-G13E, PtFOMT-T85A, PtFOMT-R87L, and PtFOMT-T205R. The corresponding recombinant proteins were purified and the catalytic activities were examined. […] The other mutants have no significant improved activity compared with PtFOMT. The leucine at 87-position is a vital residue for the methyltransferase activity.
molecule,measurement,setting,value
B1,proportion of methylated products (Pn type) to precursors (Cy type),[1],more than that of PtFOMT
same,"Activity (%), portion of recombinant protein activity compared with PsFOMT",[2]; Incubation 5 min,100%
same,"Activity (%), portion of recombinant protein activity compared with PsFOMT",[2]; Incubation 30 min,100%
